Reference: publication PMC12607895 (2025)

B1: CD46 (receptor)
chain: CEEPPTFEAMELIGKPKPYYEIGERVDYKCKKGYFYIPPLATHTICDRNHTWLPVSDDACYRETCPYIRDPLNGQAVPANGTYEFGYQMHFICNEGYYLIGEEILYCELKGSVAIWSGKPPICEKVLCTPPPKIKNGKHTFSEVEVFEYLDAVTYSCDPAPGPDPFSLIGESTIYCGDNSVWSRAAPECKVVKCRFPVVENGKQISGFGKKFYYKATVMFECDKGFYLDGSDTIVCDSNSTWDPPVPKCLKVLPPSSTKPPALSHSVSTSSTTKSPASSASGPRPTYKPPVSNYPGYPKPEEGILDSLD
B2: HAdV-B11 fiber knob (domain or fragment)
chain: GLTFNSNNICIDDNINTLWTGVNPTEANCQIMNSSESNDCKLILTLVKTGALVTAFVYVIGVSNNFNMLTTHRNINFTAELFFDSTGNLLTRLSSLKTPLNHKSGQNMATGAITNAKGFMPSTTAYPFNDNSREKENYIYGTCYYTASDRTAFPIDISVMLNRRAINDETSYCIRITWSWNTGDAPEVQTSATTLVTSPFTFYYIREDD
modifications: trimer; knob limits by convention (last shaft residues to C-terminus) Source, isoform and limits not given; soluble extracellular domain assumed; N/O-glycosylated; amine-coupled to CM5 chip
B3: HAdV-D26 hexon (natural protein)
chain: ATPSMMPQWAYMHIAGQDASEYLSPGLVQFARATDTYFSLGNKFRNPTVAPTHDVTTDRSQRLTLRFVPVDREDTTYSYKARFTLAVGDNRVLDMASTYFDIRGVLDRGPSFKPYSGTAYNSLAPKGAPNPSQWETKEKQGTTGGVQQEKDVTKTFGVAATGGINITNQGLLLGTDETAENGKKDIYADKTFQPEPQVGEENWQENEAFYGGRALKKDTKMKPCYGSFARPTNEKGGQAKFKPVNEGEQPKDLDIDFAYFDVPGGSPPAGGSGEEYKADIILYTENVNLETPDTHVVYKPGTSDNSSEINLVQQSMPNRPNYIGFRDNFVGLMYYNSTGNMGVLAGQASQLNAVVDLQDRNTELSYQLLLDSLGDRTRYFSMWNSAVDSYDPDVRIIENHGVEDELPNYCFPLNGTGTNSTYQGVKITNGNDGAEESEWEKDDAISRQNQICKGNVYAMEINLQANLWKSFLYSNVALYLPDSYKYTPANVKLPANTNTYEYMNGRVVAPSLVDAYINIGARWSLDPMDNVNPFNHHRNAGLRYRSMLLGNGRYVPFHIQVPQKFFAIKNLLLLPGSYTYEWNFRKDVNMILQSSLGNDLRVDGASVRFDSVNLYATFFPMAHNTASTLEAMLRNDTNDQSFNDYLSAANMLYPIPAKATNVPISIPSRNWAAFRGWSFTRLKTKETPSLGSGFDPYFVYSGSIPYLDGTFYLNHTFKKVSIMFDSSVSWPGNDRLLTPNEFEIKRSVDGEGYNVAQCNMTKDWFLVQMLSHYNIGYQGFHVPEGYKDRMYSFFRNFQPMSRQVVDEINYKDYKAVTLPFQHNNSGFTGYLAPTMRQGQPYPANFPYPLIGQTAVPSVTQKKFLCDRVMWRIPFSSNFMSMGALTDLGQNMLYANSAHALDMTFEVDPMDEPTLLYLLFEVFDVVRVHQPHRGVIEAVYLRTPFSAGNATT
modifications: Source, isoform and limits not given; soluble extracellular domain assumed; N/O-glycosylated; amine-coupled to CM5 chip
B4: HAdV-C5 fiber knob (domain or fragment)
chain: TGAITVGNKNNDKLTLWTTPAPSPNCRLNAEKDAKLTLVLTKCGSQILATVSVLAVKGSLAPISGTVQSAHLIIRFDENGVLLNNSFLDPEYWNFRNGDLTEGTAYTNAVGFMPNLSAYPKSHGKTAKSNIVSQVYLNGDKTKPVTLTITLNGTQETGDTTPSAYSMSFSWDWSGHNYINEIFATSSYTFSYIAQE
modifications: trimer; limits by convention of the Ad5 knob structure 1KNB Source, isoform and limits not given; soluble extracellular domain assumed; N/O-glycosylated; amine-coupled to CM5 chip
B5: CD46 (receptor)
chain: CEEPPTFEAMELIGKPKPYYEIGERVDYKCKKGYFYIPPLATHTICDRNHTWLPVSDDACYRETCPYIRDPLNGQAVPANGTYEFGYQMHFICNEGYYLIGEEILYCELKGSVAIWSGKPPICEKVLCTPPPKIKNGKHTFSEVEVFEYLDAVTYSCDPAPGPDPFSLIGESTIYCGDNSVWSRAAPECKVVKCRFPVVENGKQISGFGKKFYYKATVMFECDKGFYLDGSDTIVCDSNSTWDPPVPKCLKVLPPSSTKPPALSHSVSTSSTTKSPASSASGPRPTYKPPVSNYPGYPKPEEGILDSLDVWVIAVIVIAIVVGVAVICVVPYRYLQRRKKKGTYLTDETHREVKFTSL
B6: HAdV-D37 fiber knob (domain or fragment)
chain: WNPKYDTRTLWTTPDTSPNCTIAQDKDSKLTLVLTKCGSQILANVSLIVVAGKYHIINNKTNPKIKSFTIKLLFNKNGVLLDNSNLGKAYWNFRSGNSNVSTAYEKAIGFMPNLVAYPKPSNSKKYARDIVYGTIYLGGKPDQPAVIKTTFNQETGCEYSITFNFSWSKTYENVEFETTSFTFSYIAQE
modifications: Source, isoform and limits not given; soluble extracellular domain assumed; N/O-glycosylated; amine-coupled to CM5 chip
B7: HAdV-D56 hexon (natural protein)
chain: ATPSMMPQWAYMHIAGQDASEYLSPGLVQFARATDTYFSLGNKFRNPTVAPTHDVTTDRSQRLTLRFVPVDREDTTYSYKARFTLAVGDNRVLDMASTYFDIRGVLDRGPSFKPYSGTAYNSLAPKGAPNSSQWEQKKANAGEQKETHTYGVAPMGGENITISGLQIGTDTTNGKQDPIYANKLYQPEPQVGEENWQETEAFYGGRALKKETKMKPCYGSFARPTNEKGGQAKLRDPEKSQEDFDIDLAFFDTPGGTLTGGGTEYKADIVMCTENVNLETPDTHVVYKPGKDDDSSEINLVQQSMPNRPNYIGFRDNFVGLMYYNSTGNMGVLAGQASQLNAVVDLQDRNTELSYQLLLDSLGDRTRYFSMWNSAVDSYDPDVRIIENHGVEDELPNYCFPLDGSGTNAAYEGVKVKNGQDGDQESEWEKDTNVADRNQICKGNIYAMEINLQANLWKSFLYSNVALYLPDSYKYTPANVTLPTNTNTYEYMNGRVVAPSLVDAYINIGARWSLDPMDNVNPFNHHRNAGLRYRSMLLGNGRYVPFHIQVPQKFFAIKNLLLLPGSYTYEWNFRKDVNMILQSSLGNDLRVDGASVRFDSVNLYATFFPMAHNTASTLEAMLRNDTNDQSFNDYLSAANMLYPIPAKATNVPISIPSRNWAAFRGWSFTRLKTKETPSLGSGFDPYFVYSGSIPYLDGTFYLNHTFKKVSIMFDSSVSWPGNDRLLTPNEFEIKRSVDGEGYNVAQCNMTKDWFLVQMLSHYNIGYQGFHVPEGYKDRMYSFFRNFQPMSRQVVDEINYKDYKAVTLPFQHNNSGFTGYLAPTMRQGQPYPANFPYPLIGQTAVPSVTQKKFLCDRVMWRIPFSSNFMSMGALTDLGQNMLYANSAHALDMTFEVDPMDEPTLLYLLFEVFDVVRVHQPHRGVIEAVYLRTPFSAGNATT
modifications: Source, isoform and limits not given; soluble extracellular domain assumed; N/O-glycosylated; amine-coupled to CM5 chip

How the values were obtained:
Assay in all cases: SPR
[1] = molecular target: HAdV-D56 fiber knob (human adenovirus D56 (HAdV-D56))
[2] = molecular target: HAdV-D37 hexon (human adenovirus D37 (HAdV-D37))
[3] = molecular target: B1
[4] = molecular target: HAdV-D113 fiber knob (human adenovirus D113 (HAdV-D113))
[5] = molecular target: HAdV-B11 hexon (human adenovirus B11 (HAdV-B11))
[6] = molecular target: HAdV-D113 hexon (human adenovirus D113 (HAdV-D113))

Row | Binder | Kd [3] [nM] | also measured
1 | B1 |  | Kd [1]: 150 nM; Kd [2]: 3090 nM
2 | B2 | 1.14 | 
3 | B3 | 4240 | 
4 | B4 | 130 | 
5 | B5 |  | Kd [4]: 130 nM; Kd [5]: 210 nM; Kd [6]: 4190 nM
6 | B6 | 2700 | 
7 | B7 | 6730 | 
